According to patent US20240417458A1 (DISC MEDICINE, published 2024):
Numbering of substitutions follows the chain as printed. Numbers in names are those of the source.

T1: soluble human RGMa (human, UniProt Q96B86 48-422, limits assumed)
T1 construct: Soluble antigen in BIAcore; also called huRGMa; repulsive guidance molecule A
T1 sequence (looked up): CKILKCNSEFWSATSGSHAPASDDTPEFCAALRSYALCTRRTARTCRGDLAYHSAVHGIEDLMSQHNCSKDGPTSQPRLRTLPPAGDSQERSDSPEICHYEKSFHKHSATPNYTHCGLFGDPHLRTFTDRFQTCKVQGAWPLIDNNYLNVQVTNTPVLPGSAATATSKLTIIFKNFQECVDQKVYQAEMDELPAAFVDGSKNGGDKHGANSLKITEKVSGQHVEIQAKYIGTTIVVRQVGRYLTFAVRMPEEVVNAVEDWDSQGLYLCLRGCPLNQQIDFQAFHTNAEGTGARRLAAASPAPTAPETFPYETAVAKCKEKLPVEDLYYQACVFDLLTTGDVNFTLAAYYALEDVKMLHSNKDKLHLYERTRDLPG

T2: soluble rat RGMa (rat, UniProt D4A188 48-421)
T2 construct: Soluble antigen in BIAcore
T2 sequence: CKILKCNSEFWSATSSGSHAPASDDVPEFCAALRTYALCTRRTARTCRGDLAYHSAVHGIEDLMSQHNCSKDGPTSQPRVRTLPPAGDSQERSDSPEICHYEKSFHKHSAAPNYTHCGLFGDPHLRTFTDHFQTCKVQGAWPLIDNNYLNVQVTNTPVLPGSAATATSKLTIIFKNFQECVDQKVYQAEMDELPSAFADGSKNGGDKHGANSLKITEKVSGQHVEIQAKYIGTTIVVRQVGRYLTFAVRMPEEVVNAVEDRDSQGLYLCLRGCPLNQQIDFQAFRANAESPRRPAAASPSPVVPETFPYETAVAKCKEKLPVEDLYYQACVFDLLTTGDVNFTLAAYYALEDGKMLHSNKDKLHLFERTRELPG

T3: soluble human RGMc (human, UniProt Q6ZVN8 36-400)
T3 construct: also called huRGMc; soluble hRGMc
T3 sequence: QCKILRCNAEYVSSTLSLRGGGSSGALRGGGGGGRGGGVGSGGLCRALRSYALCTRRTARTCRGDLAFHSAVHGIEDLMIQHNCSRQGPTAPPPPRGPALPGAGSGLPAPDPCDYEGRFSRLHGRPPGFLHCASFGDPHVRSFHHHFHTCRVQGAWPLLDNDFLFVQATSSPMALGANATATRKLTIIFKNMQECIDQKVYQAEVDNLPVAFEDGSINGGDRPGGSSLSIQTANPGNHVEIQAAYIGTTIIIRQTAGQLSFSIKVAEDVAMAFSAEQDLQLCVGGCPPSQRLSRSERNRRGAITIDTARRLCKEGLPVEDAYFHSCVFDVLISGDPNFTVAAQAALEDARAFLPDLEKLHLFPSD

T4: membrane-bound human RGMc (human, UniProt Q6ZVN8 36-400)
T4 sequence: T3 sequence

T5: membrane-bound human RGMa (human, UniProt Q96B86 169-424)
T5 sequence (looked up): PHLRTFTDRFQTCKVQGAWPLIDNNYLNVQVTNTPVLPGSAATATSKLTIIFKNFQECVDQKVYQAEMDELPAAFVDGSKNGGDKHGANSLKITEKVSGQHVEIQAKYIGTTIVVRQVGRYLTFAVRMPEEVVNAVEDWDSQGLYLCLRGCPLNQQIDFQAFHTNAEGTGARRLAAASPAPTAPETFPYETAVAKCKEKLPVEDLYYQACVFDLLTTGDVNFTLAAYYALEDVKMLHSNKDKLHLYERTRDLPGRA

B1: hHA-001 (antibody, human IgG1, kappa, L234A L235A, V domains shown)
VH: EVQLVESGGGLVQPGGSLRLSCAASGFTFSNYGMNWIRQAPGKGLEWIGMIYYDSSEKHYADSVKGRFTISRDNSKNTLYLQMNSLRAEDTAVYYCAKGTTPDYWGQGTMVTVSS
VL: DVVLTQSPLSLPVTLGQPASISCRSSQSLETSDGDTFLEWFQQRPGQSPRLLIYEVSTRFSGVPDRFSGSGSGTDFTLKISRVEAEDVGVYYCFQVTHDPMTFGQGTKLEIKR
notes: hIgG1 constant region with L234A, L235A, kappa
B2: hHA-002 (antibody, human IgG1, kappa, L234A L235A, V domains shown)
VH: B1 VH
VL: B1 VL with T58S, F94M, M101L
notes: hIgG1 L234A, L235A, kappa
B3: hHA-004 (antibody, human IgG1, kappa, L234A L235A, V domains shown)
VH: B1 VH
VL: B1 VL with T31S, E55D, M101V
notes: hIgG1 L234A, L235A, kappa
B4: hHA-005 (antibody, human IgG1, kappa, L234A L235A, V domains shown)
VH: B1 VH
VL: B1 VL with T31E, D35Y, E55D, T58E, V96A, H98Y, M101L
notes: hIgG1 L234A, L235A, kappa
B5: hHA-006 (antibody, human IgG1, kappa, L234A L235A, V domains shown)
VH: B1 VH with N31Y
VL: B1 VL with T31D, D35G, E55D, T58S, V96A, M101L
notes: hIgG1 L234A, L235A, kappa

Assays:
soluble human RGMa = molecular target: T1, soluble human RGMa; assay: SPR (BIAcore);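 also: Anti-HJV antibodies tested for binding against soluble human RGMa by surface plasmon resonance on a BIAcore instrument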
Procedure: (§1) Binding affinities of the anti-HJV antibodies to soluble human RGMa, Rat RGMa and human RGMc were measured by BIAcore analysis.

soluble rat RGMa = molecular target: T2, soluble rat RGMa; assay: SPR (BIAcore);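 also: binding kinetics and affinity of anti-HJV antibodies toward soluble rat RGMa, determined by SPR on a BIAcore instrument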
Procedure: as §1

soluble human RGMc [1] = molecular target: T3, soluble human RGMc; assay: SPR (BIAcore);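 also: Anti-HJV antibodies, binding affinity to soluble human RGMc measured by BIAcore surface plasmon resonance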
Procedure: as §1

[2] = molecular target: T4, membrane-bound human RGMc; assay: cell-based or functional assay
[3] = molecular target: T5, membrane-bound human RGMa; assay: cell-based or functional assay
[4] = molecular target: T4, membrane-bound human RGMc; assay: cell-based or functional assay; remark: listed apart in the source
[5] = molecular target: T5, membrane-bound human RGMa; assay: cell-based or functional assay; remark: listed apart in the source
[6] = molecular target: T4, membrane-bound human RGMc; assay: cell-based or functional assay; remark: listed apart in the source
[7] = molecular target: T5, membrane-bound human RGMa; assay: cell-based or functional assay; remark: listed apart in the source
soluble human RGMc [8] = molecular target: T3, soluble human RGMc; assay: SPR (BIAcore), soluble hRGMc; summary table

Row | Binder | Kd (soluble human RGMa) | koff (soluble human RGMa) | kon (soluble human RGMa) | Kd (soluble rat RGMa) | koff (soluble rat RGMa) | kon (soluble rat RGMa) | Kd (soluble human RGMc [1]) | koff (soluble human RGMc [1]) | kon (soluble human RGMc [1]) | IC50 (nM), BMP reporter assay for RGMc (BRE-Luc, HEK293) [2] | IC50 (nM), BMP reporter assay for RGMa [3] | Potency on membrane hRGMc (RGMc/BMP reporter assay), IC50 [4] | Potency on membrane hRGMa (RGMa/BMP reporter assay), IC50 [5] | IC50 (read off the curve) [6] | IC50 (read off the curve) [7] | Kd (soluble human RGMc [8]) | koff (soluble human RGMc [8]) | kon (soluble human RGMc [8])
1 | B1 | 0.038 nM | 6.7e-05 s⁻¹ | 1.8e+06 M⁻¹ s⁻¹ | 0.031 nM | 3.6e-05 s⁻¹ | 1.2e+06 M⁻¹ s⁻¹ | 0.16 nM | 0.00165 s⁻¹ | 1.08e+07 M⁻¹ s⁻¹ | – | – | – | – | – | – | – | – | –
2 | B2 | 0.037 nM | 5e-05 s⁻¹ | 1.4e+06 M⁻¹ s⁻¹ | 0.053 nM | 5.5e-05 s⁻¹ | 1e+06 M⁻¹ s⁻¹ | 0.225 nM | 0.0017 s⁻¹ | 7.65e+06 M⁻¹ s⁻¹ | – | – | – | – | – | – | – | – | –
3 | B3 | 0.015 nM | 2.2e-05 s⁻¹ | 1.4e+06 M⁻¹ s⁻¹ | < 0.00094 nM | < 1e-06 s⁻¹ | 1.1e+06 M⁻¹ s⁻¹ | 0.13 nM | 0.00104 s⁻¹ | 7.85e+06 M⁻¹ s⁻¹ | 0.312 nM | 2.01 nM | 0.31 nM | 2 nM | ~0.3 nM | ~2 nM | 0.13 nM | 0.00104 s⁻¹ | 7.85e+06 M⁻¹ s⁻¹
4 | B4 | 0.13 nM | 0.00025 s⁻¹ | 1.9e+06 M⁻¹ s⁻¹ | 0.15 nM | 0.00021 s⁻¹ | 1.4e+06 M⁻¹ s⁻¹ | 0.32 nM | 0.0136 s⁻¹ | 4.15e+07 M⁻¹ s⁻¹ | – | – | – | – | – | – | – | – | –
5 | B5 | 0.12 nM | 0.00014 s⁻¹ | 1.2e+06 M⁻¹ s⁻¹ | 0.032 nM | 3e-05 s⁻¹ | 940000 M⁻¹ s⁻¹ | 0.385 nM | 0.00255 s⁻¹ | 6.65e+06 M⁻¹ s⁻¹ | – | – | – | – | – | – | – | – | –
